Laboratory results: US20160053277A1, “Compositions Having Dicamba Decarboxylase Activity and Methods of Use” (PIONEER HI-BRED INTERNATIONAL, INC., priority 2013, published 2016)

B1: 37 (protein, listed as Burkholderia gladioli)
chain: MATFSNVKKIALEEHFAIAETIEDSAGFVPPDDWVELRGRLLDIQERRLAEMDRAGIELMVLSLNAPAVQAIRDPRQAVELARRANDYLAEQVARRPDRFRAFAALPMQAPEQAIREAERCVRELGFVGALVNGFSEAEDGAELYYDLPRYRPFWAALEALEVPFYLHPRNPLAGRAPIYDGHSWLMGPTWAFGQETAVHALRLMGSGLFDAHPRLQIILGHMGEGLPYSMWRVDNRNAWVSAKPNYPAEKPIAEYFRNNFWLTTSGNFRTQTLIDAMLEIGSDRILFSADWPFENMDHAADWFDHASISENDRIKIGRGNAERLLKLGR
B2: 38 (protein, listed as Variovorax paradoxus)
chain: MAQGKIGLEEHFAIPQTLQDSAGFVPGVYWKELSSRLLDIHDGRLRQMDEHGMEMMILSLNAPAVQAVADPVKAYELAVRANDFLAEQVAKRPDRFQAFAALPMQDPEKATQELERCMSVLGFRGALVNGFSQVGTPDNVAYYDAPQYAPFWAAAERLDAPFYLHPRNPIASWAQIYEGHPWLLGPTWAFAQETAVHALRLMASGLFDRHPGLKIILGHLGEGLPYNMWRVDHRNAWVKAPKGYPAKRKLCEYFQENFYLTTSGNFRTQTLIDAMLEVGSDRILFSTDWPFENIDHASNWFNDTSISEADRKKIGRTNAMSLFKLA
B3: 45 (protein)
chain: MANDDLAEVIAAHPDRFAGFAALPMRDPQAAAVELQRAVGTHGFCGAMINGLIEGRFLDDPAFAPLLSTAADLGVPLYLHPSFPPPQVAEIYFGGLAPVLGDLLATAGWGWHAETALHVLRLVATGVFDRLPELWVIVGHMGEMIPFALARIDTVLSPVAQLRQPVAQYFQTNVWFTTSGYTTFPPLQCALSTVGIDRLIFSVDYPYTDNTSARALLDTAPISPVDREKLAHGTVEALLRV
modifications: Mycobacterium sp
B4: 19 (protein, listed as Talaromyces marneffei)
chain: MATPIITLEEHYISSAIRDASETDHYAVFPSQIISKLNTLSTERLQDLDNGHVSLQVISHGPGAQPPYLCQAANDELASAISANPTRFAGFALLPIAEPQLAVQELERCITQHKFVGALIDNHTNGQFYDDQKFWPVFEKAQELDAPIYVHPSYPDEESGVAAHYRGNYDDRIAAALGAYGWGWHSDTALSILRLFAAGLFDTYPNIKIIIGHMGEMLPFQLERVIGIASRFGRSRGLREVWTQNIWVTTSGMFALAPLACLLQTMPIERVLYSVDYPFSANEKGFAFLEEIKKSGLIKEGEDWERFLYKNAQELLKVNV
B5: 22 (protein, listed as Staphylococcus epidermidis)
chain: MAKSINFEEHYVVDDIQKETMKYMSSDPNGVPMQTMLKGLEQKSGFTNADDITKHDERIKFMDEHDVEMQVLSYGNGAPSNLEGERAIELCQQANDTLAKYVNEHPDRFVGFATLPINEPQAAVEEFKRCIKELGFKGALIMGHPKNGFLDQDQYDDLFATAEALNVPIYLHPSPVQSDVYQAYYKGNYSDVTAATFACFGYGWHVDVGIHAIHLVLSGVFDRHPNLNMIIGHWGEFVPFFLERMDDILFADHLEHPISYYFKNNFYITPSGMLTKPQFDLVKAEVGVDRILYSADYPYVEPDKLGTFLDELDLTEEEKEKISYKNGAKLLGLEK
B6: 21 (protein, listed as Agrobacterium tumefaciens)
chain: MAQGKVALEEHFAIPETLQDSAGFVPGDYWKELQHRLLDIQDTRLKLMDAHGIETMILSLNAPAVQAIPDRKKAIEIARRANDVLAEECARRPDRFLAFAALPLQDPDAATQELQRCVNDLGFVGALVNGFSQEGDGQTPLYYDLPQYRPFWGEVEKLDVPFYLHPRNPLPQDSRIYDGHPWLLGPTWAFAQETAVHALRLMASGLFDAHPRLNIILGHMGEGLPYMMWRIDHRNAWVKLPPRYPAKRRFVDYFNENFHITTSGNFRTQTLIDAILEIGADRILFSTDWPFENIDHASDWFNATTIAEADRVKIGRTNARRLFKLDGR
B7: 42 (protein)
chain: MAQGKIALEEHFAIPDTLQDSAGFVPGDYWKELSARLLDIHEQRLMQMDAYGIEKMILSLNAPAVQAIPDKAKALEISRRANDFLAEQCARNPDRFLGFAALPLQDPDAATAELQRCVKTLGFVGALVNGFSQEGDGVTPLYYDLPQYRGFWAEVEKLAVPFYLHPRNPLPQDSRIYAGHPWLMGPTWAFAQETAVHALRLVGSGLFDDHPALRIILGHMGEGLPYMMWRIDNRNAWVKVAPNYPAKRRIADYFNENFYITTSGNFRTQSLVDAMLEIGADRILFSTDWPFENIDHASDWFDTATISEADRLKIGRTNAATLFNLES
modifications: Agrobacterium radiobacter
B8: 39 (protein, listed as Agrobacterium fabrum)
chain: MAQGKVALEEHFAIPETLQDSAGFVPGDCWTELQHRLLDIQDTRLKLMDAHGIETMILSLNAPAVQAIPDKTKAIEIARRANDALAEECAKRPDRFLAFAALPLQDPDAATQELRRCVNDLGFVGALVNGFSQEGDGQTPLYYDLPQYRPFWGEVEKLDVPFYLHPRNPLPQDSRIYDGHPWLLGPTWAFAQETAVHALRLMASGLFDEHPRLDIILGHMGEGLPYMMWRIDHRNAWVKLPPRYPAKRRFVDYFNENFHITTSGNFRTQTLIDAILEIGADRILFSTDWPFENIDHASDWFHATSIAEADRVKIGRTNARRLFKLDGR
B9: 26 (protein, listed as Variovorax paradoxus)
chain: MATHMAPMKNKIALEEHFAIDLTIADSQVYARPEVWQGLKSNLLDFEQQRLEKMDEWGTEFSILSLNSPAVQGIPDAKRAIEVAQRANDVLAEQVKRHPTRFGGFAALPMQDPEASARELERCVNQLGFHGFLVNGFSQVGDENIVVYYDDARFNDFWTAAAALKKPFYMHPRDPLLAREPIYDGAHWLTGPTWAFAMETAIHALRLMSSGMFDRHPALQMILGHFGEGIPFNIWRVDHILRKGRRGMPCDKEIGEYLRSNVHITTSGNFRTPTLLSTMLEVGSDRIMYSVDYPFEKHEDAARWFDTCEISENDRQKIGRDNARKLFGLK
B10: 29 (protein, listed as Pseudovibrio sp.)
chain: MAGRRDFLRKSVAAGVGLTAAAQLSAGGAQATVPDTSNIPLITLEEHFTTPELQSKNTSGDKRLFSGGGSRPELLDVGAGRIADMDEAGIDIQVLSTVTPGASKITGAEGVEFTRKFNTWIAEEVIAAYPNRFRAFATLPLSSPEAAADELERSVREYGFVGTMTYGPIDGKFLDHADYAPLLARAEALGVPIYIHPNWPSPTAMQAYYDGLGDDLTSRILSGPGYGWHQEIAVQCLRLIVGGVFDRFPNLQIVVGHMGEGLPFYYWRVGEDLDRIAQKRLQKPVQQYFHDNLWITTSAFFRDELLNLALATMGEDRVMFSVDYPMASAKVGADWLRAADIPLATKEKIGSKNAMKLLGIDKI
B11: 16 (protein, listed as Staphylococcus aureus)
chain: MAQNNMEANQMKSITFEEHYVIEDIQKETMNAISADPKGVPMKVMLEGLEKKTGFTNADELSHHDERIQFMNNQDVQIQVLSYGNGSPSNLVGQKAIELCQKANDQLANYIAQYPNRFVGFATLPINEPETAAREFERCINDLGFKGALIMGRAQDGFLDQDKYDIIFKTAENLGVPIYLHPAPVNSDIYQSYYKGNYPEVTAATFACFGYGWHIDVGIHAIHLVLSGIFDRYPKLNMIIGHWGEFIPFFLERMDEALFAEHLNHPVSYYFKNNFYITPSGMLTKPQFDLVKKEAGIDRILYAADYPYIEPEKLGVFLDELGLTDEEKEKISYTNGAKLLGLSSNN
B12: 40 (protein, listed as Rhodococcus jostii)
chain: MAQGKIALEEHFAIPETLNDSAGFVPGTYWDELQARLLDIQDVRLKLMDEHNIETMILSLNAPAVQAIPERERAIDIARRANDVLAEECAKRPDRFRGFAALPLQDPDAAAEELRRCVTELGFVGALVNGFSQSATVDGGSTPLYYDLPRYRPFWAEVERLDVPFYLHPRNPLNQDARIYEGHPWLLGPTWAFAQETAVHALRLMASGLFDEHPGLRIVLGHMGEGIPAMLWRIDHRNAWVDVPPAYPAKRRMVDYFTENFFVTTSGNFRTQTLIDLLLELGSERVMFSTDWPFENINHAAEWFDAASISEADRLKIGRTNAATLFKLDR

test: Saturation mutagenesis of SEQ ID NO:109: dicamba decarboxylation activity of point mutants (carbon dioxide released); details: decarboxylation activity (carbon dioxide released) of point mutant compared with unmutated backbone protein; backbone SEQ ID NO: 109

Question: With B1 as the molecule, how does the “Fold Activity” value read?
Answer: Its value is 1.6.

Question: For B2, which “Fold Activity” value is on record?
Answer: The value was 1.8.

Question: With B3 as the molecule, how does the “Fold Activity” value read?
Answer: Its value is 1.7.

Question: With B4 as the molecule, how does the “Fold Activity” value read?
Answer: The value was 1.6.

Question: Which “Fold Activity” value does the source give for B5 here?
Answer: The value was 1.6.

Question: With B6 as the molecule, how does the “Fold Activity” value read?
Answer: The value was 1.9.

Question: For B7, which “Fold Activity” value is on record?
Answer: Its value is 1.7.

Question: With B8 as the molecule, how does the “Fold Activity” value read?
Answer: Its value is 1.6.

Question: With B9 as the molecule, how does the “Fold Activity” value read?
Answer: The value was 1.2.

Question: For B10, which “Fold Activity” value is on record?
Answer: The value was 1.5.

Question: For B11, which “Fold Activity” value is on record?
Answer: Its value is 1.1.

Question: With B12 as the molecule, how does the “Fold Activity” value read?
Answer: The value was 1.4.

test: 14C assay with IPTG-induced recombinant E. coli cells: 14CO2 captured from [14C]-carboxyl-labeled dicamba; details: among the 108 sequences tested, recombinant E. coli cells

Question: For B4, which “decarboxylation activity of dicamba” value is on record?
Answer: Its value is “showed decarboxylation activity of dicamba”.

Question: For B5, which “decarboxylation activity of dicamba” value is on record?
Answer: Its value is “showed decarboxylation activity of dicamba”.

Question: With B6 as the molecule, how does the “decarboxylation activity of dicamba” value read?
Answer: Its value is “showed decarboxylation activity of dicamba”.

Question: With B9 as the molecule, how does the “decarboxylation activity of dicamba” value read?
Answer: The value was “showed decarboxylation activity of dicamba”.

Question: For B11, which “decarboxylation activity of dicamba” value is on record?
Answer: Its value is “showed decarboxylation activity of dicamba”.

same assay, conditions: dicamba decarboxylation activity of the protein of the given SEQ ID NO; High / Low / No

Question: For B1, which “Enzymatic Detection level” value is on record?
Answer: The value was “Low”.

Question: For B2, which “Enzymatic Detection level” value is on record?
Answer: Its value is “Low”.

Question: For B3, which “Enzymatic Detection level” value is on record?
Answer: Its value is “No”.

Question: For B4, which “Enzymatic Detection level” value is on record?
Answer: The value was “High”.

Question: With B5 as the molecule, how does the “Enzymatic Detection level” value read?
Answer: Its value is “High”.

Question: Which “Enzymatic Detection level” value does the source give for B6 here?
Answer: The value was “High”.

Question: With B7 as the molecule, how does the “Enzymatic Detection level” value read?
Answer: The value was “Low”.

Question: Which “Enzymatic Detection level” value does the source give for B8 here?
Answer: Its value is “No”.

Question: Which “Enzymatic Detection level” value does the source give for B9 here?
Answer: The value was “High”.

Question: For B10, which “Enzymatic Detection level” value is on record?
Answer: Its value is “No”.

Question: For B11, which “Enzymatic Detection level” value is on record?
Answer: Its value is “High”.

Question: With B12 as the molecule, how does the “Enzymatic Detection level” value read?
Answer: Its value is “Low”.

same assay, conditions: induced recombinant E. coli cells, [14C]-carboxyl-labeled dicamba, 14CO2 capture

Question: With B1 as the molecule, how does the “Dicamba Decarboxylase Activity” value read?
Answer: Its value is “Low”.

Question: For B2, which “Dicamba Decarboxylase Activity” value is on record?
Answer: The value was “Low”.

Question: Which “Dicamba Decarboxylase Activity” value does the source give for B3 here?
Answer: The value was “No”.

Question: With B4 as the molecule, how does the “Dicamba Decarboxylase Activity” value read?
Answer: Its value is “High”.

Question: For B5, which “Dicamba Decarboxylase Activity” value is on record?
Answer: The value was “High”.

Question: With B6 as the molecule, how does the “Dicamba Decarboxylase Activity” value read?
Answer: The value was “High”.

Question: With B7 as the molecule, how does the “Dicamba Decarboxylase Activity” value read?
Answer: Its value is “Low”.

Question: Which “Dicamba Decarboxylase Activity” value does the source give for B8 here?
Answer: Its value is “No”.

Question: For B9, which “Dicamba Decarboxylase Activity” value is on record?
Answer: The value was “High”.

Question: Which “Dicamba Decarboxylase Activity” value does the source give for B10 here?
Answer: The value was “No”.

Question: With B11 as the molecule, how does the “Dicamba Decarboxylase Activity” value read?
Answer: Its value is “High”.

Question: With B12 as the molecule, how does the “Dicamba Decarboxylase Activity” value read?
Answer: The value was “Low”.
